{"source": "patent US20250320288A1", "about": "“METHOD OF TREATING VITILIGO WITH INTERFERON-GAMMA ANTIBODY” (Elixiron Immunotherapeutics (Hong Kong), priority 2022, published 2025)", "molecules": {"B1": {"name": "EI-001: human monoclonal anti-IFN-γ neutralizing antibody; VH SEQ ID NO: 165, VL SEQ ID NO: 113; N76Q removes VH glycosylation site (antibody, listed as Homo sapiens, V domains shown)", "VH": "EVQLVESGGGLVKPGDSLTVSCVASGFTFSNYFIHWVRQAPGKGLEWVATISGRTKYMFYSDSLRGRFTVSRDNAQNSVYLHMSSLRGEDTALYYCVRGYDHSDSNSAADLLHWGRGTLVTVSS", "VL": "NFMLTQPLSVSGYPGKTIVISCVRSSGSVASHYVQWFQQRPGSAPAMVIYEDSHRPSGIPDRFSGSVDASSNSASLTISGLKTEDEADYFCQSYYGNNQVLFGGGTKLTVL", "modifications": "Recombinant variant antibody sequence", "notes": "human monoclonal anti-IFN-γ neutralizing antibody; N76Q removes VH glycosylation site"}}, "key": {"[1]": {"system": "CXCR3 expression on CD4+ T cells", "assay": "CXCR3 expression on CD4+ T cells of activated PBMCs (flow cytometry)", "format": "cell-based, human", "conditions": "3 individual donors", "description": "(§1) Materials and methods: PBMCs from healthy adult donors were isolated from whole blood using Ficoll-Paque density gradient centrifugation. PBMCs were cultured in a humidified 37° C. incubator for 24 hours in RPMI-1640 culture medium supplemented with 5% human serum, and standard antibiotics, 2-ME and HEPES. PBMCs were then seeded at 1×10^6 cells/well with 1 mL fresh culture medium/well in a 24-well plate and stimulated by mixing cells with human T cell TransAct (1:200). Antibodies indicated in the Results were then added and mixed well. After 2 days of culture, PBMCs were collected, washed with PBS three times, re-suspended in culture medium and re-cultured with indicated antibodies for an additional 2 days.\n(§2) PBMCs were treated as required (see above) and then harvested for flow cytometry antibody staining, using anti-human CD4, anti-human CD8, anti-human CD56 and anti-human CXCR3 antibodies for 30 minutes on ice in the dark. PBMCs were then washed twice with FACS buffer and the expression of CXCR3 determined by flow cytometry using an Attune NxT flow cytometry. Flow cytometry data analysis was performed using FlowJo software."}, "recombinant human IFN-γ": {"target": "T1, recombinant human IFN-γ (Homo sapiens, UniProt P01579)", "T1 sequence (P01579 24-161 limits assumed)": "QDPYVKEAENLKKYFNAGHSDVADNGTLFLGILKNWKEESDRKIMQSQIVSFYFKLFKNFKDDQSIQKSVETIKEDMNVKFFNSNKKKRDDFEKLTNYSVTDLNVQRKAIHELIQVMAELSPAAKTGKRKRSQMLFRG", "assay": "EI-001 neutralization of IFN-γ, restoration of melanocyte melanogenesis", "format": "cell-based", "conditions": "addition of 2A6Q", "description": "Materials and methods: To examine the dose-dependency of IFN-γ inhibition of HEMn-DP cell melanogenesis, HEMn-DP cells were seeded into a 24-well plate at a concentration of 200,000 cells/well in 1 mL assay medium (M254 supplemented with 1× HMGS, 10 ng/mL PMA plus Penicillin-Streptomycin) with serial dilutions of IFN-γ, followed by incubation at 37° C. for 7 days. The cell assay medium was replaced by fresh medium with serially titrated concentrations of IFN-γ on day 3 and day 5. On day 7, cells were first washed with PBS twice, lysed in 250 μL of 1N NaOH/10% DMSO solution, then incubated at 80° C. for 1 hr. After lysis, each lysate was transfer to 96 well plate, and absorbance of melanin was then measured at […]. The relative melanin quantity was normalized with cell viability of each sample which was measured by CellTiter-Glo kit, and data were analyzed using nonlinear regression curve fit using GraphPad Prism7. To determine the potency of EI-001, HEMn-DP cells were seeded as previously described, and IFN-γ pre-incubated with indicated amounts of EI-001 for 25 min in 1 mL of assay medium. After incubation, the mixture was added to each well (final IFN-γ concentration is 20 ng/ml). Melanin content of melanocytes was determined as previously described."}, "primary melanocytes": {"system": "primary melanocytes", "assay": "Melanocyte cell viability after IFN-γ, chemokines, cell death inhibitors or 2A6Q, Day 2 and Day 7", "format": "cell-based, human", "conditions": "melanocytes with IFN-γ, up to seven days; listed as 2A6Q", "description": "To determine cell viability of melanocyte after treatment with IFN-γ, CXCL9, CXCL10, CXCL11, at Day 2, and Day 7, the cells were collected and seeded into 96-well plates. After adhesion, cells were treated with IFN-γ (0, 10, 100 ng/ml) with different compounds: 2A6Q, CXCL9, CXCL10, CXCL11, ROS scavenger (NAC), necroptosis inhibitor (NEC-1), pyroptosis inhibitor (VX-765), apoptosis inhibitor (QVD-OPH), Ferroptosis inhibitor (Liproxstaitin-1, Ferrostatin-1, DFO). Cell viability was measured using a CellTiter-Glo luminescent cell viability assay kit (Promega) according to the manufacturer's protocol. The […] of the final reaction product was measured using a luminometer (SpectraMax® iD3 Multi-Mode Microplate Reader (Molecular Devices). After calculation, the viability of control cells was 100%, and all others were normalized to control and shown as relative cell viability (%). Treatment dosage N-acetylcysteine (NAC; 0.05 mM, 1 mM), Necrostatin-1 (NEC-1; 20 μM, 2 μM), Belnacasan (VX-765; 50 μg/mL, 5 μg/mL), Quinoline-Val Asp-Difluorophenoxymethylketone (QVD-OPH; 10 μM, 2 μM), Liproxstaitin-1 (10 μM, 5 μM, 1 μM, 0.05 μM), Ferrostatin-1 (5 μM, 1 μM), Deferoxamine (DFO; 10 μM, […], 1 μM, 0.05 μM), 2A6Q (10 μg/mL), CXCL9 (10 ng/mL, 10 pg/mL), CXCL10 (10 ng/ml, 10 pg/mL), CXCL11(10 ng/mL, 10 pg/mL)."}, "melanocytes": {"system": "melanocytes", "assay": "Lipid peroxidation in melanocytes (BODIPY 581/591 C11)", "format": "cell-based, human", "conditions": "melanocytes", "description": "For lipid peroxidation examination, melanocyte cells were seeded in a 6-well plate and treated with IFN-γ the next day. Melanocytes were washed with PBS and incubated with Hanks balanced salt solution (HBSS, Gibco) containing 5 μM BODIPY 581/591 C11 (Invitrogen, D3861) and incubated for 15 minutes at 37° C. in a tissue culture incubator. The cells were resuspended with fresh HBSS and examined with flow cytometry; the data were analyzed with FlowJo."}, "SLC7A11": {"system": "SLC7A11", "assay": "Ferroptosis regulators in melanocytes (RNA sequencing, SLC7A11 immunoblot)", "format": "cell-based, human", "conditions": "melanocytes", "description": "(§3) Total RNA was extracted from melanocytes with an RNA purification kit (Zymo Research, r2050). After RNA samples were extracted from primary melanocytes and melanocytes cell line (Gibco), the samples were sent to Biotools Co., Ltd Taiwan for RNA sequence. The RNA quality was examined by Agilent Technologies 2100 Bio-analyzer with an RNA integrity value greater than 8. After rRNA depletion (Epicenter), RNA fragmentation, and library preparation (Illumina), the constructed libraries were then performed 150 bp paired-end sequencing by an Illumina NovaSeq6000 sequencer. The results from each sample were aligned to the GRCh38 genome by the HISAT2 software and analyzed by Biotools Co., Ltd Taiwan.\n(§4) Cells were washed in PBS and lysed in RIPA lysis buffer with proteases inhibitor and Phenylmethanesulfonyl fluoride (PMSF; Sigma-Aldrich, P7626). The total cell lysates were sonicated and centrifuged at 4° C., 13000 rpm for 30 min. Protein concentration was quantified using the Bradford assay. The total cell lysates were separated by SDS-PAGE and transferred to a PVDF membrane. The membrane was blocked with 5% BSA or 5% milk in TBST for 1 hour at room temperature and incubated with primary antibodies overnight at 4° C. and HRP-conjugated secondary antibodies for hour at room temperature. The protein was visualized by Thermo ibright1500. Primary antibodies were follows: anti-human SLC7A11 (CST, 12691), anti-human SLC3A2 (CST, 13180), anti-IRF1 (CST, 8478), anti-MITF (CST, 12590), and anti-GAPDH (Abcam, ab8245)."}, "MITF": {"system": "MITF", "assay": "Melanin regulators in melanocytes (RNA sequencing, MITF immunoblot)", "format": "cell-based, human", "conditions": "melanocytes", "description": "as §3, §4"}, "[2]": {"system": "CXCR3 expression on CD8+ T cells", "assay": "CXCR3 expression on CD8+ T cells of activated PBMCs (flow cytometry)", "format": "cell-based, human", "conditions": "3 individual donors", "description": "as §1, §2"}}, "note": "Entries after “also recorded” stand apart in the source; their conditions may differ."}
{"molecule": "B1", "values": [{"measurement": "IC50 of EI-001 to inhibit CXCR3 expression on CD4+ T cells", "setting": "[1]", "result": "0.279 to 1.313", "unit": "µg/mL"}, {"measurement": "rescue of IFN-γ induced decrease in melanin content", "setting": "recombinant human IFN-γ", "result": "can be rescued; also recorded: reverses"}, {"measurement": "rescue of IFN-γ induced melanocyte cell death (cell viability)", "setting": "primary melanocytes", "result": "more profound than all other cell death inhibitors; also recorded: rescue cell viability of melanocyte in a time-dependent manner"}, {"measurement": "reversal of IFN-γ induced lipid peroxidation", "setting": "melanocytes", "result": "reverses"}, {"measurement": "reversal of ferroptosis as demonstrated by SLC7A11", "setting": "SLC7A11", "result": "reverses ferroptosis"}, {"measurement": "reversal of IFN-γ induced downregulation of MITF", "setting": "MITF", "result": "reverses"}, {"measurement": "IC50 of EI-001 to inhibit CXCR3 expression on CD8+ T cells", "setting": "[2]", "result": "1.029 to 6.941", "unit": "µg/mL"}]}
